Source: patent US20240000957A1 (published 2024)

Experiments:
[1] = molecular target: T1, Mouse EphA3 Fc fusion (Mouse, UniProt P29319 21-540); experiment: SPR, Fc-tagged protein captured by anti-human IgG
T1 construct: Bought Fc fusion; also called Sino Biologics 51122-M02H; not shown: Fc of the bought fusion
T1 sequence (looked up): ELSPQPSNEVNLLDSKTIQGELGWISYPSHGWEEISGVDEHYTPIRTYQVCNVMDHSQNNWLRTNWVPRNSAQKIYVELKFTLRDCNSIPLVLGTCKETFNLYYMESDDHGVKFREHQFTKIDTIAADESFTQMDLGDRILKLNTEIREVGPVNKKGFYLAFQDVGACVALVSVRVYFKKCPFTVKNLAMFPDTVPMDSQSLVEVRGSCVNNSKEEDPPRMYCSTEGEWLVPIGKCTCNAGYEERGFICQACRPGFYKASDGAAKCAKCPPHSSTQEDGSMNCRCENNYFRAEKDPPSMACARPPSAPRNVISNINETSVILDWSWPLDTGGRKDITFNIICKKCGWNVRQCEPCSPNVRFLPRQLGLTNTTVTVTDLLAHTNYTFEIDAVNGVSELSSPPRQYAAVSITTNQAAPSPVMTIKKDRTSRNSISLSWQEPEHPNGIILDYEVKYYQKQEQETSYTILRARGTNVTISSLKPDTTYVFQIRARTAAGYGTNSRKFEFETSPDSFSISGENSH

[2] = molecular target: T2, Rat EphA3 Fc fusion (Rat, UniProt O08680 21-541); experiment: SPR, Fc-tagged protein captured by anti-human IgG
T2 construct: Bought Fc fusion; also called Sino Biologics 80465-R02H; not shown: Fc of the bought fusion
T2 sequence (looked up): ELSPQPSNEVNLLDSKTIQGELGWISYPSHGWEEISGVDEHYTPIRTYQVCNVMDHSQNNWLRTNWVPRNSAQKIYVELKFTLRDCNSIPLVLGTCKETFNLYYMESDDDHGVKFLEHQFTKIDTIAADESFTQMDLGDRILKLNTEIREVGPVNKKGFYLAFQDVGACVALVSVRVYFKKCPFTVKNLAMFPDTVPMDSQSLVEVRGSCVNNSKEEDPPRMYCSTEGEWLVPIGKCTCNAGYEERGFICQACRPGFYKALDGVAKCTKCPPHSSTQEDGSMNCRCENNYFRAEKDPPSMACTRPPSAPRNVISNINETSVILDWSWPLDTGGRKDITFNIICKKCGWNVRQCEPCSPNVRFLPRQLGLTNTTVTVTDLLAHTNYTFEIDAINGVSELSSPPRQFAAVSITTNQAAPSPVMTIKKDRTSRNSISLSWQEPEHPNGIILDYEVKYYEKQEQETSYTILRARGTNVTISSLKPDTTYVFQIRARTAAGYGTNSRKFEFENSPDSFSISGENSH

[3] = molecular target: T3, Rat EphB1 Fc fusion (Rat, UniProt P09759 18-540, limits assumed); experiment: SPR, Fc-tagged protein captured by anti-human IgG
T3 construct: Bought Fc fusion; also called R&D Systems 1596-B1; not shown: Fc of the bought fusion
T3 sequence (looked up): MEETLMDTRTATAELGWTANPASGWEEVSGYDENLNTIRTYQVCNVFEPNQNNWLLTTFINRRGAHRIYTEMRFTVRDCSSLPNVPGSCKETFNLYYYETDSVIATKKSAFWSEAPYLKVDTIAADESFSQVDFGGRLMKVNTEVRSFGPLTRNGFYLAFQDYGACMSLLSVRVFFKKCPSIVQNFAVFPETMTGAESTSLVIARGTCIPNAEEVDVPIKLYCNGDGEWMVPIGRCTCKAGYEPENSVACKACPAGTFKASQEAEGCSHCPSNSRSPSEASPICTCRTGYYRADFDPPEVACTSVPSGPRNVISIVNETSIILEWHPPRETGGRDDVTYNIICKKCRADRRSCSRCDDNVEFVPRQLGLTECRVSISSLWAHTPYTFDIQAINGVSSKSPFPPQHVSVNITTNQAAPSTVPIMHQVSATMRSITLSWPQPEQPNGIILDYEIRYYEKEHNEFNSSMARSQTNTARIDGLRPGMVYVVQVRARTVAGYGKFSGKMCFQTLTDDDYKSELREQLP

[4] = molecular target: T4, Mouse EphA4 Fc fusion (Mouse, UniProt Q03137 20-547); experiment: SPR, Fc-tagged protein captured by anti-human IgG
T4 construct: Bought Fc fusion; also called Sino Biologics 50575-M02H; not shown: Fc of the bought fusion

[5] = molecular target: Rat EphA2 (Rat, UniProt D3ZBN3 23-538, biotinylated, 1.4 mol biotin/monomer); experiment: SPR, biotinylated EphA2 on streptavidin chip
[6] = molecular target: T5, Human EphA2 (Human, UniProt P29317 24-537, limits assumed, biotinylated, 0.95 mol biotin/monomer); experiment: SPR, biotinylated EphA2 on streptavidin chip
T5 construct: also called Eph receptor tyrosine kinase A2

[7] = molecular target: T6, Mouse EphA2 (Ecto) (Mouse, UniProt Q03145 26-538); experiment: FP competition vs Reference Compound C (Study 2)
T6 construct: extracellular domain; Fluorescence polarisation assays; not shown: Fc fusion (R&D Systems 639-A2) or C-terminal polyHis (Sino Biological 50586-M08H)

[8] = molecular target: T7, Human EphA2 (Ecto), C-terminal polyHis (Human, UniProt P29317 24-537); experiment: FP competition vs Reference Compound C (Study 2)
T7 construct: extracellular domain; R&D systems 3035-A2 or in-house

[9] = molecular target: T8, Rat EphA2 (ligand binding), C-terminal polyHis (Rat); experiment: FP competition vs Reference Compound C (Study 2)
T8 construct: In-house

T5 sequence (P29317 24-537 limits assumed): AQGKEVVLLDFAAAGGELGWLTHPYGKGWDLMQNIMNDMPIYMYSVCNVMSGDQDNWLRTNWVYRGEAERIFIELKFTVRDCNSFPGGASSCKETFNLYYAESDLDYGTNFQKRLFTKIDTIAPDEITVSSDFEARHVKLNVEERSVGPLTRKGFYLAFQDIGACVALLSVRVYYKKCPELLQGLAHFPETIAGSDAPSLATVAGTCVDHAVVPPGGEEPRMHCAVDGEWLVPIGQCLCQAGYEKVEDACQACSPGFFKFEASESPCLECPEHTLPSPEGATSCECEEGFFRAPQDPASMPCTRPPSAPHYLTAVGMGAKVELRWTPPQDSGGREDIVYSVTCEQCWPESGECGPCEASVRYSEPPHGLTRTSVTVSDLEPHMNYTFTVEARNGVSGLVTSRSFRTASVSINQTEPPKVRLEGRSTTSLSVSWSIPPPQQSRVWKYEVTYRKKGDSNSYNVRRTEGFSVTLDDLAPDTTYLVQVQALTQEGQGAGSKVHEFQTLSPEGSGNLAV
T4 sequence (Q03137 20-547 limits assumed): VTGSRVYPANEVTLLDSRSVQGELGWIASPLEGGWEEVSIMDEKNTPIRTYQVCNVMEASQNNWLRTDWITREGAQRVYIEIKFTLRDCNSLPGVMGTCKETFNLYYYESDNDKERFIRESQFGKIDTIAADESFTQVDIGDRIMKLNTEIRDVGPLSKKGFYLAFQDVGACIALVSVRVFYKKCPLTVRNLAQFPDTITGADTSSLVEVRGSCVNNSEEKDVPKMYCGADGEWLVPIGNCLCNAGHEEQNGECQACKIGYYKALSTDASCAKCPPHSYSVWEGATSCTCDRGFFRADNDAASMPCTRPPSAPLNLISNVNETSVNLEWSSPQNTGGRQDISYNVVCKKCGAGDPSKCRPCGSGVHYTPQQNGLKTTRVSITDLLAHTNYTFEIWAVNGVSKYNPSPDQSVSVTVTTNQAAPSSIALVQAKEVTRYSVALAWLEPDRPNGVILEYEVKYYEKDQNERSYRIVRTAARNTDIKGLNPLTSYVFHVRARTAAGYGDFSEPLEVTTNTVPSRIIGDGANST
T7 sequence (P29317 24-537): as the sequence (P29317 24-537 limits assumed) above
T6 sequence (Q03145 26-538): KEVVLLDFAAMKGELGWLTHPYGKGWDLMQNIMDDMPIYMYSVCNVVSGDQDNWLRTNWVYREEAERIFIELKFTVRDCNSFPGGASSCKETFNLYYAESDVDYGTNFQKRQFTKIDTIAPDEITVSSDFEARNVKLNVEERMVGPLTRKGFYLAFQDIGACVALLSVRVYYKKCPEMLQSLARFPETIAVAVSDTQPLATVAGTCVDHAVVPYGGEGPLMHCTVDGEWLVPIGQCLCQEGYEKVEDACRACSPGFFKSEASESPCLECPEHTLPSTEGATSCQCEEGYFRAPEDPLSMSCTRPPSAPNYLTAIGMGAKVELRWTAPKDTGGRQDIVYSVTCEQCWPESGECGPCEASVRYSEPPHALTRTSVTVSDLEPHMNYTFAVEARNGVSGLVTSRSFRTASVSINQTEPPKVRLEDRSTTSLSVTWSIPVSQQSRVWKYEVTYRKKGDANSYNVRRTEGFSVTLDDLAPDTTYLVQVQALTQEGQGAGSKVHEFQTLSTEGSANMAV

Binder | binding result [1] | binding result [2] | binding result [3] | binding result [4] | Kd [5] [nM] | t1/2 [5] [min] | Kd [6] [nM] | t1/2 [6] [min] | Ki [7] [nM] | Ki [8] [nM] | Ki [9] [nM]
AXDCPLVNPLCLHPGWTC (not fully specified; N-terminal (β-Ala)-Sar10 spacer precedes SEQ ID NO: 11; HArg (homoarginine) at residue 2 of SEQ ID NO: 11; three Cys cyclised on the TATA scaffold; ValCit-MMAE (MMAE-PABC-Cit-Val-glutarate) on the N-terminal amine) | no binding (tested: 20 µM) | no binding (tested: 20 µM) | no binding (tested: 20 µM) | no binding (tested: 20 µM) | 166 | 2.6 | 3.41 | 3.5 | – | – | –
AXDCPLVNPLCLHPGWTC (not fully specified; as BCY6014 (N-terminal (β-Ala)-Sar10; HArg; TATA scaffold on the 3 Cys) + ValCit-MMAE, Bicycle drug conjugate (BDC)) | – | – | – | – | – | – | – | – | 34.2 | 9.9 | 13.4
AXDCPLVNPLCLHPGWTC (not fully specified; as BCY6014 (N-terminal (β-Ala)-Sar10; HArg; TATA scaffold on the 3 Cys) + DM1-SS(SO3H)-, Bicycle drug conjugate (BDC)) | – | – | – | – | – | – | – | – | 34.1 | 10.5 | 13.9
AXDCPLVNPLCLHPGWTC (not fully specified; N-terminal (β-Ala)-Sar10 spacer precedes SEQ ID NO: 11; HArg (homoarginine) at residue 2 of SEQ ID NO: 11; three Cys cyclised on the TATA scaffold; DM1-SS(SO3H)- (DM1-SO3H-SPDB) on the N-terminal amine) | no binding (tested: 20 µM) | no binding (tested: 20 µM) | no binding (tested: 20 µM) | no binding (tested: 20 µM) | 28.8 | 3.2 | 2.42 | 4.8 | – | – | –
